Experimental data: paper PMC2133194
Where two headings read alike, the source gives them in different places.

How the values were obtained:
Assay in all cases: flow cytometry on cells
[1] = biological target: human CD34 on CHO/FTVII/C2GnT cells cotransfected with HEC-GlcNAc6ST (human) (UniProt P28906)
[2] = biological target: human CD34 on CHO/FTVII/C2GnT cells cotransfected with KSGal6ST and HEC-GlcNAc6ST (human) (UniProt P28906)
[3] = biological target: human CD34 on CHO/FTVII/C2GnT cells cotransfected with KSGal6ST (human) (UniProt P28906)
[4] = biological target: human CD34 on CHO/FTVII/C2GnT cells cotransfected with HEC-GlcNAc6ST (human) (UniProt P28906); remark: listed apart in the source
[5] = biological target: human CD34 on CHO/FTVII/C2GnT cells cotransfected with KSGal6ST and HEC-GlcNAc6ST (human) (UniProt P28906); remark: listed apart in the source
[6] = biological target: human CD34 on CHO/FTVII/C2GnT cells cotransfected with KSGal6ST (human) (UniProt P28906); remark: listed apart in the source

MFI of L-sel/IgM staining (KSGal6ST 0 ug, HEC-GlcNAc6ST 1.0 ug) [1]: 114 MFI | MFI of L-sel/IgM staining (KSGal6ST 0 ug, HEC-GlcNAc6ST 1.5 ug) [1]: 163 MFI | MFI of L-sel/IgM staining (KSGal6ST 0.5 ug, HEC-GlcNAc6ST 0.5 ug) [2]: 935 MFI | MFI of L-sel/IgM staining (KSGal6ST 0.5 ug, HEC-GlcNAc6ST 1.0 ug) [2]: 830 MFI | MFI of L-sel/IgM staining (KSGal6ST 1.0 ug, HEC-GlcNAc6ST 0.5 ug) [2]: 917 MFI | MFI of L-sel/IgM staining (KSGal6ST 1.0 ug, HEC-GlcNAc6ST 0 ug) [3]: 364 MFI | MFI of L-sel/IgM staining (KSGal6ST 1.5 ug, HEC-GlcNAc6ST 0 ug) [3]: 391 MFI | MFI of L-sel/IgM staining (KSGal6ST 0 ug, HEC-GlcNAc6ST 1.0 ug) [4]: 60 MFI | MFI of L-sel/IgM staining (KSGal6ST 0.5 ug, HEC-GlcNAc6ST 0.5 ug) [5]: 836 MFI | MFI of L-sel/IgM staining (KSGal6ST 1.0 ug, HEC-GlcNAc6ST 0 ug) [6]: 197 MFI
Substance: L-selectin/IgM chimera (from UniProt P18337 39-332) (Fc fusion)
